For series [1], the target named is T1, AIM2FL (Homo sapiens, UniProt O14862 1-343).
T1 sequence: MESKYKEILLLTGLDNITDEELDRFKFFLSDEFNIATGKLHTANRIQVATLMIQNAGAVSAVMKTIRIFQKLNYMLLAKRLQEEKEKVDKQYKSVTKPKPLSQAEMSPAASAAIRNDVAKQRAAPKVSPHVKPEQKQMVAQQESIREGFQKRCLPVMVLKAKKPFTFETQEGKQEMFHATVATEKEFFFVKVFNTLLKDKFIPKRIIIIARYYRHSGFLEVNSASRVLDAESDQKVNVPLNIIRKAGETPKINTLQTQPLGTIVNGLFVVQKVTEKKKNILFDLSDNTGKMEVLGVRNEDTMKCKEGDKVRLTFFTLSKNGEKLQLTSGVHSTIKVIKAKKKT
The series is described as follows: competition fluorescence anisotropy; unlabelled competitor against 6 nM 60-bp FAM-dsDNA, 60 nM protein; 160 mM KCl (60 mM KCl for IFI16HinAB); buffer, pH and temperature not given in the available text. The conditions noted are these: protein: recombinant.

Series [2] has as its target T1, AIM2FL. The series is described as follows: fluorescence anisotropy; upper-limit estimate; 160 mM KCl; 60 mM KCl for IFI16HinAB; FAM probe 3-6 nM (FA) or 20 nM (EMSA); binding buffer pH and temperature not in the material. To be noted: protein: recombinant.
Series [3] addresses T2, IFI16FL (Homo sapiens, UniProt Q16666-2 1-729). The series is described as follows: competition fluorescence anisotropy; unlabelled competitor against 6 nM 24-bp FAM-dsDNA, 500 nM protein; 160 mM KCl (60 mM KCl for IFI16HinAB); buffer, pH and temperature not given in the available text. The conditions noted are these: protein: recombinant, tags: C-terminal His6.
The target in series [4] is T3, IFI16HinAB (Homo sapiens, UniProt Q16666-2 159-729). The series is described as follows: competition fluorescence anisotropy; unlabelled competitor against 6 nM 24-bp FAM-dsDNA, 1000 nM protein; 160 mM KCl (60 mM KCl for IFI16HinAB); buffer, pH and temperature not given in the available text. The conditions noted are these: protein: recombinant.
T3 sequence (Q16666 other isoform, or with tags, fused parts or gaps): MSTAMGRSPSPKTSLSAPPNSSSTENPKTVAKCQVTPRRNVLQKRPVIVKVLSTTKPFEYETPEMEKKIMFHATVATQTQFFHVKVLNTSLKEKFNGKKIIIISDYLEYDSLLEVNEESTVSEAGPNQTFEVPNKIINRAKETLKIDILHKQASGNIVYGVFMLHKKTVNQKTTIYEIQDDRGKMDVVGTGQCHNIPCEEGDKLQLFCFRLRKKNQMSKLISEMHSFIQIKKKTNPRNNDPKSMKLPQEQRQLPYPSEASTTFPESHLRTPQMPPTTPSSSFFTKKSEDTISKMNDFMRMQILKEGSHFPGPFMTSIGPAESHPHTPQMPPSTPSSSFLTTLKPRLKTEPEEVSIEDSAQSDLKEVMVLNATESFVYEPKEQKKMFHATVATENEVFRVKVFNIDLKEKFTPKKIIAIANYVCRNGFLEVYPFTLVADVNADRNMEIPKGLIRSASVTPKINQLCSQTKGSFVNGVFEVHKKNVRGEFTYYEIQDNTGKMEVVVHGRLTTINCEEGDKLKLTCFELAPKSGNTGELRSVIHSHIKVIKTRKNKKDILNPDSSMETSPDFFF
Series [5] concerns the target T1, AIM2FL. Nature of the series: competition fluorescence anisotropy; unlabelled competitor against 6 nM 24-bp FAM-dsDNA, 100 nM protein; 160 mM KCl (60 mM KCl for IFI16HinAB); buffer, pH and temperature not given in the available text. To be noted: protein: recombinant.
The target of series [6] is T3, IFI16HinAB. Nature of the series: competition fluorescence anisotropy; unlabelled competitor against 6 nM 60-bp FAM-dsDNA, 400 nM protein; 160 mM KCl (60 mM KCl for IFI16HinAB); buffer, pH and temperature not given in the available text. To be noted: protein: recombinant.
Series [7] addresses T4, AIM2HIN (Homo sapiens, UniProt O14862 144-343).
T4 sequence: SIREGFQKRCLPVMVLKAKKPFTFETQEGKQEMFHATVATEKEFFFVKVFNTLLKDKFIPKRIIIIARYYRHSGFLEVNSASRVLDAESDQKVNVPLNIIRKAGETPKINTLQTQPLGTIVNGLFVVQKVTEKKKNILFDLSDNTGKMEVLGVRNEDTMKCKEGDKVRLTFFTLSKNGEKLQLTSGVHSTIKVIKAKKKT
The description is as above. To be noted: protein: recombinant.

The target in series [8] is T2, IFI16FL. The series is described as follows: fluorescence anisotropy; printed 0.003*, upper-limit estimate; 160 mM KCl; 60 mM KCl for IFI16HinAB; FAM probe 3-6 nM (FA) or 20 nM (EMSA); binding buffer pH and temperature not in the material. The conditions noted are these: protein: recombinant; tags: C-terminal His6.
Series [9] addresses T3, IFI16HinAB. Nature of the series: fluorescence anisotropy; 160 mM KCl (60 mM KCl for IFI16HinAB); buffer, pH and temperature not given in the available text. The conditions noted are these: protein: recombinant.
Series [10] has as its target T4, AIM2HIN. The series is described as above. To be noted: protein: recombinant.
The target of series [11] is T4, AIM2HIN. The series is described as follows: competition fluorescence anisotropy; unlabelled competitor against 6 nM 24-bp FAM-dsDNA, 625 nM protein; 160 mM KCl (60 mM KCl for IFI16HinAB); buffer, pH and temperature not given in the available text. The conditions noted are these: protein: recombinant.
Series [12] has as its target T2, IFI16FL. Nature of the series: competition fluorescence anisotropy; unlabelled competitor against 6 nM 60-bp FAM-dsDNA, 100 nM protein; 160 mM KCl (60 mM KCl for IFI16HinAB); buffer, pH and temperature not given in the available text. The conditions noted are these: protein: recombinant; tags: C-terminal His6; chain copies: 4.
Series [13] deals with T2, IFI16FL. Nature of the series: competition; last row of Table S10, presumably against 60-bp FAM-dsDNA; 160 mM KCl; 60 mM KCl for IFI16HinAB; FAM probe 3-6 nM (FA) or 20 nM (EMSA); binding buffer pH and temperature not in the material. The conditions noted are these: protein: recombinant; tags: C-terminal His6.
The target in series [14] is T1, AIM2FL. Nature of the series: fluorescence anisotropy; 160 mM KCl; 60 mM KCl for IFI16HinAB; FAM probe 3-6 nM (FA) or 20 nM (EMSA); binding buffer pH and temperature not in the material. To be noted: protein: recombinant.
Series [15] deals with T2, IFI16FL. The series is described as follows: fluorescence anisotropy; 160 mM KCl (60 mM KCl for IFI16HinAB); buffer, pH and temperature not given in the available text. The conditions noted are these: protein: recombinant; tags: C-terminal His6.
Series [16] has as its target T1, AIM2FL. The series is described as above. The conditions noted are these: protein: recombinant.

T2 sequence (Q16666 other isoform, or with tags, fused parts or gaps): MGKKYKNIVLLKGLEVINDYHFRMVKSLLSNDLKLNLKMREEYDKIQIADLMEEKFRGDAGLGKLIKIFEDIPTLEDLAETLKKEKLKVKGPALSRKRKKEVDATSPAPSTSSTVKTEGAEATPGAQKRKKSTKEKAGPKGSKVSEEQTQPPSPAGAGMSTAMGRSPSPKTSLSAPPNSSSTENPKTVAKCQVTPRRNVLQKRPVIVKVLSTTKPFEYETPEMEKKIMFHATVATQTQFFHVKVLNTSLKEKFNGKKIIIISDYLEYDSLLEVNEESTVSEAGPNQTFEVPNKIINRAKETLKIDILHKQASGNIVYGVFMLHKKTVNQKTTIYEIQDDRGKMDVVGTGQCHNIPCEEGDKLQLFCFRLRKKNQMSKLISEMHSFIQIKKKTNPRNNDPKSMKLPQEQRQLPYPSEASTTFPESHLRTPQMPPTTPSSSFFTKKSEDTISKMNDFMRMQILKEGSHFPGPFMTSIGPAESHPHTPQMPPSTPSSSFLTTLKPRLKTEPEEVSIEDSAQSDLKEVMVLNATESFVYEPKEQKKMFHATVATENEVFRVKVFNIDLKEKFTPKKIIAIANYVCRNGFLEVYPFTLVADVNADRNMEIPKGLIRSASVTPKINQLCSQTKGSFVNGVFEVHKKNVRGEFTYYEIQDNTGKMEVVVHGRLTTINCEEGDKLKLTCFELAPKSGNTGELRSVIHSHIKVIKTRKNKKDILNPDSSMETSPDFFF

B1: 60-bp dsDNA (dsDNA)
DNA 1: TAAGACACGATGCGATAAAATCTGTTTGTAAAATTTATTAAGGGTACAAATTGCCCTAGC
DNA 2: GCTAGGGCAATTTGTACCCTTAATAAATTTTACAAACAGATTTTATCGCATCGTGTCTTA
Turning to B1, the IC50 is 142 ± 8.5 nM in the series with AIM2FL [1]; 331 ± 29.8 nM with IFI16FL [3] (chain copies: 4); 289 ± 37.3 nM with IFI16HinAB [4]; 11.8 ± 0.3 nM with AIM2FL [5]; 258 ± 24.9 nM with IFI16HinAB [6]; 268 ± 8.4 nM with AIM2HIN [7]. Further, the IC50 with AIM2HIN [11] is 19.7 ± 1.9 nM; with IFI16FL [12], 627 ± 132 nM. The Kd was < 3 nM with AIM2FL [2], < 3 nM with IFI16FL [8], 20 ± 10 nM with IFI16HinAB [9] and 600 ± 100 nM in the series with AIM2HIN [10].

B2: 60-bp DNA:RNA hybrid (DNA:RNA)
DNA: B1 DNA 1
RNA: GCUAGGGCAAUUUGUACCCUUAAUAAAUUUUACAAACAGAUUUUAUCGCAUCGUGUCUUA
B2: the IC50 with IFI16FL [13] worked out at 975 ± 48.1 nM; with IFI16FL [3] it was 239 ± 31.9 nM; with IFI16HinAB [4], 663 ± 64.6 nM; with AIM2FL [5] it was 19.6 ± 0.44 nM; with IFI16HinAB [6], 623 ± 106 nM; in the series with AIM2HIN [7] it was 350 ± 44 nM. Besides, in the series with AIM2HIN [11], the half-inhibitory concentration (IC50) amounted to 100 ± 9 nM. Besides, the Kd was determined as 40 ± 10 nM in the series with AIM2FL [14]; 60 ± 10 nM in the series with IFI16HinAB [9]; 35 ± 15 nM with IFI16FL [15]; 800 ± 100 nM in the series with AIM2HIN [10]; 40 ± 10 nM with AIM2FL [16].

Values taken from paper PMC10085679, “Filament assembly underpins the double-stranded DNA specificity of AIM2-like receptors”.
